From US20030198640A1 (Human Genome Sciences, published 2003)

T1: full length TNF-gamma-beta expressed on the cell surface (HEK293F stable transfectants); cells transfected … (human, UniProt O95150 1-251)
T1 construct: also called TNF-gamma-beta expressing cells
T1 sequence: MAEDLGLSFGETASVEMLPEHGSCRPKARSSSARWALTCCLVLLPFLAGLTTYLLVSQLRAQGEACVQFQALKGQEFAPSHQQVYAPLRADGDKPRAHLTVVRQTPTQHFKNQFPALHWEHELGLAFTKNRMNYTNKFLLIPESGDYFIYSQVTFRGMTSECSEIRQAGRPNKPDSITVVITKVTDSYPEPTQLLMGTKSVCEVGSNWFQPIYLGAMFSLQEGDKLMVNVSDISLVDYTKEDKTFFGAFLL

T2: DR3, full length, on cells (transfected 293T cells; naturally expressed on TF-1 cells and T cells) (human, UniProt Q93038 25-417)
T2 sequence: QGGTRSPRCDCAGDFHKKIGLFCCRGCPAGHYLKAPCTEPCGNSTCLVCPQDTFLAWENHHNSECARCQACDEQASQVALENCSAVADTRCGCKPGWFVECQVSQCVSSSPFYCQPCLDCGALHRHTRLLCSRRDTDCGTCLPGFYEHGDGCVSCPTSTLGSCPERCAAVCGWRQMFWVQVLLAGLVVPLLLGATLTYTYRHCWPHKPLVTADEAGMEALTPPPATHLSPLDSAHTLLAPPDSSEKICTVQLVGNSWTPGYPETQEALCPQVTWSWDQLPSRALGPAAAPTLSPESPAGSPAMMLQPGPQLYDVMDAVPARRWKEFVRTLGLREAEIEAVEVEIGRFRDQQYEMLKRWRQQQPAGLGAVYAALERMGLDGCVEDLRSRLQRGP

T3: TR6-Fc (full-length human TNFR-6 alpha, SEQ ID NO:6 aa 1-300, fused to the Fc domain of human IgG1) (human, UniProt O95407 30-300)
T3 construct: also called TNFR-6 alpha Fc fusion protein; DcR3-Fc; not shown: Fc domain of human IgG1
T3 sequence: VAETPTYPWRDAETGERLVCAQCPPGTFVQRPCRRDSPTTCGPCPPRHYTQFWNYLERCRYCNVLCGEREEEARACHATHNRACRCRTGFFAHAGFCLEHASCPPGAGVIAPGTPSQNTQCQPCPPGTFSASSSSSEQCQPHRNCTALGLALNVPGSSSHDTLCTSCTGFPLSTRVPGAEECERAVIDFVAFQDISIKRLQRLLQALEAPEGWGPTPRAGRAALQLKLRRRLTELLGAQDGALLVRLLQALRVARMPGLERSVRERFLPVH

T4: TR2-Fc (extracellular domain of human TR2, aa 1-192, fused to the Fc domain of human IgG1) (human, UniProt Q92956 39-192)
T4 construct: range 1-192; also called HveA-Fc; not shown: Fc domain of human IgG1
T4 sequence (looked up): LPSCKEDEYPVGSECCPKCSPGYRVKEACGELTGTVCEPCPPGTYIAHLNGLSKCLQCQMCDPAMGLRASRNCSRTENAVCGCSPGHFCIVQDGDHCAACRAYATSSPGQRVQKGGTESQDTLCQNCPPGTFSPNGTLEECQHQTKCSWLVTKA

B1: OPG (Fc-fusion form) (Fc fusion, UniProt O00300 22-194, looked up)
chain: ETFPPKYLHYDEETSHQLLCDKCPPGTYLKQHCTAKWKTVCAPCPDHYYTDSWHTSDECLYCSPVCKELQYVKQECNRTHNRVCECKEGRYLEIEFCLKHRSCPPGFGVVQAGTPERNTVCKRCPDGFFSNETSSKAPCRKHTNCSVFGLLLTQKGNATHDNICSGNSESTQK
notes: extracellular domain; not shown: Fc part
B2: DcR2 (Fc-fusion form of the extracellular domain) (Fc fusion, UniProt Q9UBN6 56-211, looked up)
chain: ATIPRQDEVPQQTVAPQQQRRSLKEEECPAGSHRSEYTGACNPCTEGVDYTIASNNLPSCLLCTVCKSGQTNKSSCTTTRDTVCQCEKGSFQDKNSPEMCRTCRTGCPRGMVKVSNCTPRSDIKCKNESAASSTGKTPAAEETVTTILGMLASPYH
notes: as for B1
B3: AITR (Fc-fusion form of the extracellular domain) (Fc fusion, UniProt Q9Y5U5 26-162, looked up)
chain: QRPTGGPGCGPGRLLLGTGTDARCCRVHTTRCCRDYPGEECCSEWDCMCVQPEFHCGDPCCTTCRHHPCPPGQGVQSQGKFSFGFQCIDCASGTFSGGHEGHCKPWTDCTQFGFLTVFPGNKTHNAVCVPGSPPAEP
notes: as for B1
B4: TNF-gamma-β (form used not stated) (ligand)
chain: LKGQEFAPSHQQVYAPLRADGDKPRAHLTVVRQTPTQHFKNQFPALHWEHELGLAFTKNRMNYTNKFLLIPESGDYFIYSQVTFRGMTSECSEIRQAGRPNKPDSITVVITKVTDSYPEPTQLLMGTKSVCEVGSNWFQPIYLGAMFSLQEGDKLMVNVSDISLVDYTKEDKTFFGAFLL
B5: human LIGHT protein, natural secreted form (aa 83-240), E. coli (ligand)
chain: LIQERRSHEVNPAAHLTGANSSLTGSGGPLLWETQLGLAFLRGLSYHDGALVVTKAGYYYIYSKVQLGGVGCPLGLASTITHGLYKRTPRYPEELELLVSQQSPCGRATSSSRVWWDSSFLGGVVHLEAGEEVVVRVLDERLVRLRDGTRSYFGAFMV
notes: also called soluble LIGHT
B6: DcR1 (Fc-fusion form of the extracellular domain) (Fc fusion, UniProt O14798 26-221, looked up)
chain: ATTARQEEVPQQTVAPQQQRHSFKGEECPAGSHRSEHTGACNPCTEGVDYTNASNNEPSCFPCTVCKSDQKHKSSCTMTRDTVCQCKEGTFRNENSPEMCRKCSRCPSGEVQVSNCTSWDDIQCVEEFGANATVETPAAEETMNTSPGTPAPAAEETMNTSPGTPAPAAEETMTTSPGTPAPAAEETMTTSPGTPA
notes: as for B1
B7: full-length human TR6 (without Fc), baculovirus/Sf9 (receptor)
chain: T3 sequence
notes: also called soluble TR6; non-Fc form of TR6
B8: full-length human LIGHT on cells (293F stable transfectants; endogenous LIGHT on activated human T cells) (ligand)
chain: MEESVVRPSVFVVDGQTDIPFTRLGRSHRRQSCSVARVGLGLLLLLMGAGLAVQGWFLLQLHWRLGEMVTRLPDGPAGSWEQLIQERRSHEVNPAAHLTGANSSLTGSGGPLLWETQLGLAFLRGLSYHDGALVVTKAGYYYIYSKVQLGGVGCPLGLASTITHGLYKRTPRYPEELELLVSQQSPCGRATSSSRVWWDSSFLGGVVHLEAGEEVVVRVLDERLVRLRDGTRSYFGAFMV
notes: also called cell membrane LIGHT; LIGHT-transfectants
B9: OX40 (Fc-fusion form of the extracellular domain) (Fc fusion, UniProt P43489 29-214, looked up)
chain: LHCVGDTYPSNDRCCHECRPGNGMVSRCSRSQNTVCRPCGPGFYNDVVSSKPCKPCTWCNLRSGSERKQLCTATQDTVCRCRAGTQPLDSYKPGVDCAPCPPGHFSPGDNQACKPWTNCTLAGKHTLQPASNSSDAICEDRDPPATQPQETQGPPARPITVQPTEAWPRTSQGPSTRPVEVPGGRA
notes: as for B1
B10: RANK (Fc-fusion form of the extracellular domain) (Fc fusion, UniProt Q9Y6Q6 30-212, looked up)
chain: IAPPCTSEKHYEHLGRCCNKCEPGKYMSSKCTTTSDSVCLPCGPDEYLDSWNEEDKCLLHKVCDTGKALVAVVAGNSTTPRRCACTAGYHWSQDCECCRRNTECAPGLGAQHPLQLNKDTVCKPCLAGYFSDAFSSTDKCRPWTNCTFLGKRVEHHGTEKSDAVCSSSLPARKPPNEPHVYLP
notes: as for B1
B11: TNFR1-Fc (Fc fusion, UniProt P19438 30-211, looked up)
chain: LVPHLGDREKRDSVCPQGKYIHPQNNSICCTKCHKGTYLYNDCPGPGQDTDCRECESGSFTASENHLRHCLSCSKCRKEMGQVEISSCTVDRDTVCGCRKNQYRHYWSENLFQCFNCSLCLNGTVHLSCQEKQNTVCTCHAGFFLRENECVSCSNCKKSLECTKLCLPQIENVKGTEDSGTT
notes: as for B1

Tests used:
[1] = target: T1, full length TNF-gamma-beta expressed on …; assay: flow cytometry on HEK293F cells expressing full length TNF-gamma-beta
Description: (§1) These cells were used to screen the Fc-fusion form of the extracellular domain of TNFR family members, including TNFR1, Fas, HveA, DR3, DR4, DR5, DR6, DcR1, DcR2, TR6, OPG, RANK, AITR, TAC1, CD40, and OX40. […] TR6 has been previously described as a decoy receptor (Pitti et al., Nature 396:699-703 (1998); Yu et al., J. Biol. Chem. 274:13733-6 (1999)) capable of competing with Fas and HveA for binding of FasL and LIGHT, respectively.
(§2) One million cells, in 0.1 ml of FACS buffer (PBS, 0.1% BSA, 0.1% NaN₃), were incubated with 0.1-1 microgram of protein or antibody at RT for 15 min. The cells were washed with 3 ml of FACS buffer, reacted with biotinylated primary antibody, and stained with PE-conjugated secondary antibody at RT for 15 min. Cells were then washed again, resuspended in 0.5 microgram/ml of propidium iodide, and live cells were gated and analyzed on a FACScan using the CellQuest software (BD Biosciences).

[2] = target: T2, DR3, full length, on cells (transfected …); assay: cell-based or functional assay
[3] = target: B7; assay: BIAcore; non-Fc TR6
[4] = target: T3, TR6-Fc (full-length human TNFR-6 alpha, …); assay: BIAcore; TR6-Fc form
Description: (§3) The amount of bound protein was determined during washing of the flow cell with HBS buffer (10 mM HEPES, pH 7.4, 150 mM NaCl, 3.4 mM EDTA, 0.005% Surfactant P20). The flow cell surface was regenerated by washing off the bound proteins with 20 microliters of 10 mM glycine-HCl pH 2.3. […] The on- and off-rates were determined according a kinetic evaluation program in the BiaEvaluation 3 software using a 1:1 binding model and the global analysis method.
(§4) We determined the kinetics of binding of LIGHT to both the Fe and non-Fc versions of TR6 according to BIAcore analysis.

[5] = target: T4, TR2-Fc (extracellular domain of human …); assay: BIAcore, TR2-Fc immobilised; TR2-Fc, not TR6
[6] = target: B5; assay: BIAcore
Description: as §3, §4

[7] = target: T1, full length TNF-gamma-beta expressed on …; assay: flow cytometry competition on HEK293F cells expressing TNF-gamma-beta; competitor of DR3-Fc
Description: as §1, §2

[8] = target: T3, TR6-Fc (full-length human TNFR-6 alpha, …); assay: flow cytometry on 293 cells overexpressing LIGHT
Description: Cells were incubated with Fc-fusion proteins in 100 ul FACS buffer (d-PBS with 0.1% sodium azide and 0.1% BSA) for 15-20 minutes at room temperature. The cells were washed once and reacted with goat F (ab)₂ anti-human IgG (Southern Biotechnology, Birmingham, Ala.) for 15 minutes at room temperature. After wash, the cells were resuspended in 0.5 ug/ml propidium iodide, and live cells were gated and analyzed on a FACScan (BD Biosciences, Mansfield, Mass.).
This was tested on 293 cells overexpressing LIGHT according to flow cytometry.

[9] = target: B7; assay: flow cytometry competition on activated human T cells

B1
binding result [1]: no binding

B2
binding result [1]: no binding

B3
binding result [1]: no binding

B4
IFNγ production by anti-CD2 stimulated lamina propria mononuclear cells (ELISA) [2]: ≥ 2 fold

B5
Kd [3]: 14.3 nM
koff [3]: 0.00483 s⁻¹
kon [3]: 338000 M⁻¹ s⁻¹
Kd [4]: 5.46 nM
koff [4]: 0.0023 s⁻¹
kon [4]: 422000 M⁻¹ s⁻¹
Kd [5]: 4.56 nM

B6
binding result [1]: no binding

B7
fold off rate against TR6-Fc [6]: ~2 fold
molar ratio TR6 to DR3-Fc at which no DR3-Fc binding was detected [7]: 2 molar ratio (TR6:DR3-Fc)

B8
binding result [8]: binds
binding result [9]: binds

B9
binding result [1]: no binding

B10
binding result [1]: no binding

B11
binding result [1]: no binding
